Test: yeast display, Sf9 membrane polyspecificity reagent, FACS + sequencing; frameworks hold sequencing errors
How it was run: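 Polyreactivity labels are assigned by the sorting gate from which each nanobody was recovered. The gates were low and high (top ~1%), set on anti-HA fluorescence for expression and streptavidin fluorescence for reagent binding. Before sorting, galactose-induced (36–48 hours) yeast display cells were stained for 1 hour at 4 °C with 10% biotinylated, detergent-solubilized Sf9 membrane reagent.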

Row | Sequence | polyreactivity (PSR sort gate)
1 | QVQLVESGGGLVQAGGSLRLSCAASGFTFWGNAMGWYRPAPGKERELVAAITDTGSTNYADSVKGRFTISRDNAKNTVYLQMNSLKPEDTAVYYCAKDKAYYDWGQTNGYWGQGTQVTVSS | low polyreactivity
2 | QVQLVESGGGLVQAGGSLRLSCAASGFTFWGYTMGWYRQAPGKERELVAAITSTGSTYYAYSVKGRFTISRDNAKNTVYLQMNSLKPEDTSVYYCATARSYLTYSYHYDYWGQGTQVTVSS | low polyreactivity
3 | QVQLVESGGGLVQAGGSLRLSCAASGFTFWKYAMGWYRQAPGKERELVATITSSGDNTYYADSVKGRFTISRDNAKNNVYLQMNSLKPEDTAVYYCAADNGYHYNFDYWGQGTQVTVSS | low polyreactivity
4 | QVQLVESGGGLVQAGGSLRLSCAASGFTFWLYAMGWYRQAPGKERELVAAIDWDCGTYYADSVKGRFTISRDNAKNTVYLQMNSLKPEDTAVYYCAARYRYYYTRYDYWGQGTQVTVSS | high polyreactivity
5 | QVQLVESGGGLVQAGGSLRLSCAASGFTFWRNAMGWYRQAPGKERELVAAISASGGSTYYADSVKGRFTISRDYAKNTVYLQKNSLKPEDTAVYYCAADTQGFYRYDYWGQGTQVTVSS | low polyreactivity
6 | QVQLVESGGGLVQAGGSLRLSCAASGFTFWRNTMGWSRQAPGKERELVAAIDRSGSSTYYADSEKGRFTISRDNATNTVYLQMNSLKPEDTAVYYCAAAHTYFTPYGDYWGQGTQVTVSS | low polyreactivity
7 | QVQLVESGGGLVQAGGSLRLSCAASGFTFWRNVMGWYRQAPGKERELVAAITRSGGSTYYADSVKGRFTISRDNAKNTVYLQMNSLKPEDTAVYYCNAVRHGGYDYLGQGTQVTVSS | high polyreactivity
8 | QVQLVESGGGLVQAGGSLRLSCAASGFTFWTNAMGWYRQAPGKERELVAAITSSGGTTYYADSVKGRFTISRDNAKNTVYLQMNSLKPEDTAVYYCAAELGGYVASYYYPGYDYWGQGTQVTVSS | low polyreactivity
9 | QVQLVESGGGLVQAGGSLRLSCAASGFTFWVYAMGWYRQAPGKEREFVAAISGIGDDTNYADSVKGRFTISRDNAKNTVYLQMNSLKPEDTAVYYCATVALRYYGVTEFDYWGQGTQVTVSS | high polyreactivity
10 | QVQLVESGGGLVQAGGSLRLSCAASGFTFWWYTMGWYRQAPGKERELVAAITWSGSRTYYADSVKGRFTISRDNAKNTVYLQMNSLKPEDTAVYYCAATYLKVHGEYDYWGQGTQVTVSS | high polyreactivity
11 | QVQLVESGGGLVQAGGSLRLSCAASGFTFWYNTMGWYRQAPGKERELVAAINRGGGRTYYADSVKGRFTISRDNAKNTVYLQMNSLKPEDTAVYYCAKKDYYSKVGGPQSEYDYWGQGTQVTVSS | low polyreactivity
12 | QVQLVESGGGLVQAGGSLRLSCAASGFTFWYYAMGWYRQAPGKERELVAAISRSGTSTYYADSVKGRFTISRDNAKNTVFLQMNCLKPEDSAVYYCNVLRVNSITYLMDYWVQGTQVTVSS | high polyreactivity
13 | QVQLVESGGGLVQAGGSLRLSCAASGFTFWYYAMGWYRQAPGKERELVASISSIGGSTYYADSVKGRFTISRDNAKNTVYLQMNSLKPEDTAVYYCAADRSSNGLMPGSKNEYWGQGTEVTVSS | high polyreactivity
14 | QVQLVESGGGLVQAGGSLRLSCAASGFTFWYYAMGWYRQAPGKERELVATISRGGGSTYYADSVKGRFTISRDNAKNTVYLQMNSLKPEDTAVYYCNAALTRVSRFWGGDYYYWGQGTQVTVSS | high polyreactivity
15 | QVQLVESGGGLVQAGGSLRLSCAASGFTFWYYDMGWYRQAPGKERELVAAISRSGTSTYYADSVKGRFTISRDNAKNTVYLQMNSLKPEDTAVYYCNKVRNTRSYDYWGQGTQVTVSS | high polyreactivity
16 | QVQLVESGGGLVQAGGSLRLSCAASGFTFYAYAMGWYREAPGKERELVATIRRSTGSTYYADSVKGRFTISRDNAKNTVYLQMNSLKQQDTAVYYFATRVWFPITSYDYWGQGTQVTVSS | low polyreactivity

Row | Sequence | polyreactivity (PSR sort gate)
17 | QVQLVESGGGLVQAGGSLRLSCAASGFTFYAYAMGWYRQAPGKERELVAAITWDDDSTSYADSVKGRFTISRDNAKNTVYLQMNSLKPEDTAVYYCAADSIRHRRYKYDYWGQGTQVTVSS | low polyreactivity
18 | QVQLVESGGGLVQAGGSLRLSCAASGFTFYDYAMGRYIQAPGKERELVAGINSGDSTYYADSVKGRFTISRDNAKNSVYLLMNSLKPEDSAVYYCAADWAWLQWAYDYWGQGTQVTVSS | low polyreactivity
19 | QVQLVESGGGLVQAGGSLRLSCAASGFTFYGNAMGSSRQAPGKEREWVAAITSTGNTYYADSVTGRFTISRDNAKNTVYLQMNSLKPEDTAVYYCARRGDILYDYWGQGTQVTVSS | low polyreactivity
20 | QVQLVESGGGLVQAGGSLRLSCAASGFTFYGYAKGWYRQAPGKERELVAAISKRGGSTYYADSVKGRFTISRDNAKNPVYLQMNSLKPEDTAVYYCNADKHYQYRYRQYGYWGQGTQVTVSS | high polyreactivity
21 | QVQLVESGGGLVQAGGSLRLSCAASGFTFYGYAMGWYRQAPGKERELVAAISRSGVRTYYADSVKGRFTISRDNAKNTVYLQMNSLKPEDTAVYYCNAVPRYGYYWGQGTQVTVSS | high polyreactivity
22 | QVQLVESGGGLVQAGGSLRLSCAASGFTFYGYAMGWYRQAPGKERELVAAITSSGGSTYYADSVKGRFTISRDNAKNTVYLQMNSLKPEDTAVYYCAVVTILVFRYVVPYDYWGQGTQVTVSS | high polyreactivity
23 | QVQLVESGGGLVQAGGSLRLSCAASGFTFYGYTMGWYRQAPGKERELVAAINKSGSSTYYADSEKGRFTISRDNAKNTVYLQMNSLKPEDTAVYYCNAYYRKVLGYDKMDYWGQGTQVTVSS | high polyreactivity
24 | QVQLVESGGGLVQAGGSLRLSCAASGFTFYHYAMGWYRQAPGKERELVAAIDNGGSTYADSVKGRFTISRDNAKNTVYLQMNSLKPEDTAVYYCAAVYLRYINGFYYWGQGTQVTVSS | low polyreactivity
25 | QVQLVESGGGLVQAGGSLRLSCAASGFTFYIYAMGWYRQAPGKERELVAAINFRGGSTYYADSVKGRFTISRDNAKNTVYLQMNSLKPEDTAVYYCAARSRDKYDYWGQGTQVTVSS | high polyreactivity
26 | QVQLVESGGGLVQAGGSLRLSCAASGFTFYKNAMGWYRQAPGKERELVAAITRRGSRTYYADSVKGRFTISRDNAKNTVYLQMNSLKPEDTAVYYCAADDGSDAEYYYWGQGTQVTVSS | high polyreactivity
27 | QVQLVESGGGLVQAGGSLRLSCAASGFTFYKNTMGWYRQAPGKVRELGAAISSSGSSTYYADSVKGRFTISRDNAKTTVYLQMNSLKPEDTAVYYCAAVSHYPAGYDYWGQGTQVTVSS | high polyreactivity
28 | QVQLVESGGGLVQAGGSLRLSCAASGFTFYKYALGWYRQAPGKERELVAAISNSGGSTYYADSVKGRFTISRDNAKNTVYLQMNCLKPEDTAVYYCAKLSDSITLYGYWGQGTQVNVSS | high polyreactivity
29 | QVQLVESGGGLVQAGGSLRLSCAASGFTFYKYAMGWYRPAPGKERELVAAITWSGGRTYYADSVKGRFTISRDNAKNTVYLKMNSLKPEDTAVYYCTARQKQGNFDYWGQGTQVTVSS | high polyreactivity
30 | QVQLVESGGGLVQAGGSLRLSCAASGFTFYKYAMGWYRQAPGKERELVAAISRRGTSTYYADSVKGRFTISRDNAKNTVYLQMNSLKPEDTAVYYCAAEIWSYPAYDYWGQGTQVTVSS | high polyreactivity
31 | QVQLVESGGGLVQAGGSLRLSCAASGFTFYLNAMGWYRQAPGKERELVAAITRRGTSTYYADSVKGRFTISRDNAKNTVYLQMNSLKPEDTAVYYCAARPLDYWGQGTQVTVSS | high polyreactivity
32 | QVQLVESGGGLVQAGGSLRLSCAASGFTFYLYAMGWYRQAPGKERELVASISSGGRTKYADSVKGRFSISRDNAMNTVYLQMNSLKPEDTAVYYCAARGYFTRQFTPYDYWGQGTQVTVSS | high polyreactivity

Reference: the nanobody polyreactivity screen of Harvey et al. (2022)
